The values that follow come from US20240116985A1 (published 2024).

Assay [1] addresses T1, full-length beta-Catenin (Uniprot ID P35222) (Homo sapiens (Human), UniProt P35222 2-781).
T1 construct: full-length beta-Catenin (Uniprot ID P35222); also called bCat; B-Catenin
T1 sequence: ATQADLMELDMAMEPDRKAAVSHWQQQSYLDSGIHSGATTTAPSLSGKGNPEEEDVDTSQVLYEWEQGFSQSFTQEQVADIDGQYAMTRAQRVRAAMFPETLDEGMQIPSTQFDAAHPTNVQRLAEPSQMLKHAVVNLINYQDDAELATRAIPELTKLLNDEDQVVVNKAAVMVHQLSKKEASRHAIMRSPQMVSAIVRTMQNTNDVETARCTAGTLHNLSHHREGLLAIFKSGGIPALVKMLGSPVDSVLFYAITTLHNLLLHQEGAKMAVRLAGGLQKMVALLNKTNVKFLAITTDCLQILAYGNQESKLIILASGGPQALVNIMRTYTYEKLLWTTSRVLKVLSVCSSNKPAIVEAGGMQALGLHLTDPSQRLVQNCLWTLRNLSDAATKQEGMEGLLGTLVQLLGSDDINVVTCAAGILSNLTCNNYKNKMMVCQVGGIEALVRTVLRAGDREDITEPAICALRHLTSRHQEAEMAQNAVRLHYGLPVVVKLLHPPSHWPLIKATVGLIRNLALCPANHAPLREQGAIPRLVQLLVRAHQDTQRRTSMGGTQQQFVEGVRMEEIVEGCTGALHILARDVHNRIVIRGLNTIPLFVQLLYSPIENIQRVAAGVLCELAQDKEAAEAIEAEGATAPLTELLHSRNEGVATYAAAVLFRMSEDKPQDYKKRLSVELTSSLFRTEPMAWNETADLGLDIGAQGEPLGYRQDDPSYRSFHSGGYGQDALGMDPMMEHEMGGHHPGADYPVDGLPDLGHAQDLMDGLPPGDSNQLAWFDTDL
Nature of the assay: fluorescence polarization competition; full-length beta-catenin + 5FAM-TCF4 10-53 probe, peptide titrated. The procedure:
The plate was incubated protected from light for 60 minutes at 20° C. prior to read. Reads were performed on a CLARIOstar plate reader (BMG Labtech) in duplicate, and data were fitted to a 1:1 binding model with hill slope using an in-house script. All provided concentrations are final concentrations.
For orientation: Fluorescence polarisation rises when a labelled molecule tumbles more slowly, as on binding a larger partner.

Assay [2] deals with T2, B-cat-Halo (beta-catenin HaloTag fusion expressed in HEK293 cells) (Homo sapiens (Human), UniProt P35222 1-781).
T2 sequence: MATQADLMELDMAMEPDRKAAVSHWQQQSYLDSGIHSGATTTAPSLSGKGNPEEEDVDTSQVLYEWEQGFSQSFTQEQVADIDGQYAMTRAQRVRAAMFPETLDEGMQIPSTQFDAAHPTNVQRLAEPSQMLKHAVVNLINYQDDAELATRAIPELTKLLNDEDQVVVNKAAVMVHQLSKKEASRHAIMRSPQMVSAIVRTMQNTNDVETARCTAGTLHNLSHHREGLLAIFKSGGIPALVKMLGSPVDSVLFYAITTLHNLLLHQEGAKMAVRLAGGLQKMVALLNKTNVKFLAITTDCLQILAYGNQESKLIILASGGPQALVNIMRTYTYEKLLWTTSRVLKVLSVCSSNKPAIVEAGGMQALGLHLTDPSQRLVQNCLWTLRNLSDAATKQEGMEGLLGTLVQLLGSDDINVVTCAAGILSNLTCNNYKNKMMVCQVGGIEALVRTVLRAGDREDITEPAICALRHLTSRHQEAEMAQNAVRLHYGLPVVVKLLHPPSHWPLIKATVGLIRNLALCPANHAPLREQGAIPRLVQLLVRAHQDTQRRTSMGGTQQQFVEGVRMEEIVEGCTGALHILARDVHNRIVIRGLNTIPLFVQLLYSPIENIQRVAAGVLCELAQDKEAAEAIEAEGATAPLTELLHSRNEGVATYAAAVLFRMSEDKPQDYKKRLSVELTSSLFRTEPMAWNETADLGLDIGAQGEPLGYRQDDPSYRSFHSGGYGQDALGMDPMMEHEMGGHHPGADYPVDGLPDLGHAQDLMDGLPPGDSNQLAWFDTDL
Nature of the assay: cell-based or functional assay.

In a further assay the target is T3, B-cat-Halo (UniProt P35222 1-781).
T3 sequence (looked up): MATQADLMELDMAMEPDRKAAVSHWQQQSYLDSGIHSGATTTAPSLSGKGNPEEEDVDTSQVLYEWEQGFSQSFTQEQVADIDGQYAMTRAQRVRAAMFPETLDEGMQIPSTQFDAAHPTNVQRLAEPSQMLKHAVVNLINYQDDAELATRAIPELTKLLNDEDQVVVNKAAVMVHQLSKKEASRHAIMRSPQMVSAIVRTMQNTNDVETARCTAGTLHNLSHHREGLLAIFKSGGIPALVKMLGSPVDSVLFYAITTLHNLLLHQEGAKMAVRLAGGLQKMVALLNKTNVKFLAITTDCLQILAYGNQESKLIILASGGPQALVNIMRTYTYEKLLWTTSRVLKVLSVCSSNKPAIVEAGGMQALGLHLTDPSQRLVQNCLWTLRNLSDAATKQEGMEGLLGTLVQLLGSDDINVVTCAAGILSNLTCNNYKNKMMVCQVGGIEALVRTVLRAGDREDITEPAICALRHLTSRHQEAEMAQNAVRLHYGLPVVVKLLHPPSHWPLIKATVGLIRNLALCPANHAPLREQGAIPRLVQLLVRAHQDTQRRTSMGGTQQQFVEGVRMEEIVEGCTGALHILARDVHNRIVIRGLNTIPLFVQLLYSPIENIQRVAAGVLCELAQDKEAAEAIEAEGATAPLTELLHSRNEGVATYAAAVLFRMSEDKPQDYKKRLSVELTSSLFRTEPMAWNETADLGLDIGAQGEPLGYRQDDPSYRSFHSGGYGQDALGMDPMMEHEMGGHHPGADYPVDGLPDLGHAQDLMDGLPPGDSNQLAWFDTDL
Nature of the assay: cell-based or functional assay.

Starred links: 1 amine or outer side, 2 acyl side, 3 side chain; linkers in the order of their positions; H or OH if unused. Positions of bridges follow the written chain, without caps; N, C: chain ends. Non-standard residues stand in square brackets, D forms with d. Primed or numbered codes have the meaning given here. *: point of attachment. PyrS2″ = (S)-3-amino-1-((pent-4-en-1-yloxy)carbonyl)pyrrolidine-3-carboxylic acid (stapling residue), C=CCCCOC(=O)N1CC[C@@](N[*:1])(C(=O)[*:2])C1; B5(4) = 2,2-bis(4-pentenyl)glycine = 2-amino-2-(pent-4-en-1-yl)hept-6-enoic acid (stitching residue), C=CCCCC(CCCC=C)(N[*:1])C(=O)[*:2]; B5(33) = 2-amino-2-(pent-4-en-1-yl)hept-6-enoic acid (bis-pentenylglycine, two olefin side chains), C=CCCCC(CCCC=C)(N[*:1])C(=O)[*:2]; B5(21) = 2-amino-2-(pent-4-en-1-yl)hept-6-enoic acid, bis(4-pentenyl)glycine (stitching residue), C=CCCCC(CCCC=C)(N[*:1])C(=O)[*:2]; PyrS2 = (S)-3-amino-1-((pent-4-en-1-yloxy)carbonyl)pyrrolidine-3-carboxylic acid, C=CCCCOC(=O)N1CC[C@@](N[*:1])(C(=O)[*:2])C1; Phe(3-COOH) = N[C@@H](Cc1cccc(C(=O)O)c1)C(=O)O; Phe(2-CF3) = N[C@@H](Cc1ccccc1C(F)(F)F)C(=O)O; Phe(2-Cl) = N[C@@H](Cc1ccccc1Cl)C(=O)O; 2Nal = N[C@@H](Cc1ccc2ccccc2c1)C(=O)O; Bta = N[C@@H](Cc1csc2ccccc12)C(=O)O; Lys(iPr) = CC(C)NCCCC[C@H](N)C(=O)O; αAllylPro = C=CC[C@@]1(C(=O)O)CCCN1; tBuAla = CC(C)(C)C[C@H](N)C(=O)O; Cha = N[C@@H](CC1CCCCC1)C(=O)O; Propanoyl(3-OMe) = COCCC(=O)*; iPr = CC(C)* Some results are limits rather than exact numbers.

B1: I-1387 (peptide)
peptide: Ac-[αAllylPro]NA[B5(21)]DTK(iPr)AFL[PyrS2″]F[2Nal]Q-NH2
modifications: staple 1-4, 4-11
notes: also called Ac-PL3-Asn-Ala-B5-Asp-Thr-iPrLys-Ala-Phe-Leu-PyrS2-Phe-2NapA-Gln-NH2
Usually IC50 stands for the concentration that gives 50% inhibition. In the case of B1, the IC50 in assay [1] was found to be 6.94 µM.

For the molecule Ac-[αAllylPro]D[tBuAla][B5(4)]D[Phe(3-COOH)]AAFL[PyrS2″][Phe(2-CF3)][SbMeBztA]Q-NH2 (staple 1-4, 4-11) [I-2456], the “NanoBRET Abs IC50” value in assay [2] was determined as 8.1 µM.

B2: I-1382 (peptide)
peptide: Ac-[αAllylPro]NA[B5(4)]DT[Lys(iPr)]AFL[PyrS2″]F[Bta]Q-NH2
modifications: staple 1-4, 4-11
notes: also called Ac-PL3-Asn-Ala-B5-Asp-Thr-iPrLys-Ala-Phe-Leu-PyrS2-Phe-BztA-Gln-NH2
Take B2: the IC50 in assay [1] was 2.85 µM.

B3: I-1384 (peptide)
peptide: Ac-[αAllylPro]NA[B5(4)]DT[Lys(iPr)]AFL[PyrS2″]F[Bta]T-NH2
modifications: staple 1-4, 4-11
notes: also called Ac-PL3-Asn-Ala-B5-Asp-Thr-iPrLys-Ala-Phe-Leu-PyrS2-Phe-BztA-Thr-NH2
Regarding B3, the IC50 in assay [1] worked out at 10 µM.

B4: I-1386 (peptide)
peptide: Ac-[αAllylPro]NA[B5(21)]DKK(iPr)AFL[PyrS2″]F[Bta]Q-NH2
modifications: staple 1-4, 4-11
notes: also called Ac-PL3-Asn-Ala-B5-Asp-Lys-iPrLys-Ala-Phe-Leu-PyrS2-Phe-BztA-Gln-NH2
Consider B4, for which the IC50 in assay [1] was found to be 2.25 µM.

B5: I-1383 (peptide)
peptide: Ac-[αAllylPro]NA[B5(4)]DT[Lys(iPr)]AFL[PyrS2″]F[Bta]K-NH2
modifications: staple 1-4, 4-11
notes: also called Ac-PL3-Asn-Ala-B5-Asp-Thr-iPrLys-Ala-Phe-Leu-PyrS2-Phe-BztA-Lys-NH2
With B5, the IC50 in assay [1] was 1.66 µM.

B6: I-1385 (peptide)
peptide: Ac-[αAllylPro]NA[B5(21)]DQK(iPr)AFL[PyrS2″]F[Bta]Q-NH2
modifications: staple 1-4, 4-11
notes: also called Ac-PL3-Asn-Ala-B5-Asp-Gln-iPrLys-Ala-Phe-Leu-PyrS2-Phe-BztA-Gln-NH2
As to B6, the IC50 in assay [1] came to 1.08 µM.

B7: I-1259 (peptide)
peptide: {Propanoyl(3-OMe)}-[αAllylPro]D[tBuAla][B5(33)]DDAAFN[PyrS2][Phe(2-Cl)][Bta][dT]-NH2
modifications: staple 1-4, 4-11 (inferred); not fully specified; printed as MeOPr-PL3-Asp-Npg-B5-Asp-Asp-Ala-Ala-Phe-Asn-PyrS2-2C1F-BztA-dThr-NH2
Turning to B7, in the assay with B-cat-Halo, the “NanoBRET Abs IC50” value stood at 18.1 µM.

As for Ac-[αAllylPro]D[tBuAla][B5(4)]D[Phe(3-COOH)]QAFL[PyrS2″][Phe(2-CF3)][SbMeBztA]A-NH2 (staple 1-4, 4-11) [I-2457], the “NanoBRET Abs IC50” value in assay [2] was determined as 20.8 µM.

On to Ac-[αAllylPro]N[Cha][B5(4)]DT[Lys(iPr)]AFL[PyrS2″]F[Bta]Q-NH2 (staple 1-4, 4-11) [I-2448], for which the “NanoBRET Abs IC50” value in assay [2] is greater than 20 µM.

As for Ac-[αAllylPro]D[tBuAla][B5(4)]D[Phe(3-COOH)]QAFL[PyrS2″][Phe(2-CF3)][2Nal]A-NH2 (staple 1-4, 4-11) [I-2461], the “NanoBRET Abs IC50” value in assay [2] was determined as 25.4 µM.

For Ac-[αAllylPro]N[Cha][B5(4)]DT[Lys(iPr)]AFL[PyrS2″]F[Bta]K-NH2 (staple 1-4, 4-11) [I-2450], the “NanoBRET Abs IC50” value in assay [2] is greater than 20 µM.

Consider Ac-[αAllylPro]D[tBuAla][B5(4)]D[Phe(3-COOH)]AAFL[PyrS2″][Phe(2-CF3)][RbMeBztA]Q-NH2 (staple 1-4, 4-11) [I-2458], for which the “NanoBRET Abs IC50” value in assay [2] turned out to be 5.9 µM.
